In patent US20140274782A1 (Stanford University, published 2014):

Columns and labels:
Assay in all cases: ProtoArray, GST-treated control array;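 also: human protein microarray (about 9500 recombinant proteins) incubated overnight with GST alone plus SAM cofactor as the negative control for G9a SET domain methylation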
[1] = target: CTSZ-Cathepsin Z (human, UniProt Q9UBR2 24-303, limits assumed)
[2] = target: T1, RHBDD1-rhomboid domain containing 1 (RHBDD1) (human, UniProt Q8TEB9 1-315, limits assumed)
T1 sequence (looked up): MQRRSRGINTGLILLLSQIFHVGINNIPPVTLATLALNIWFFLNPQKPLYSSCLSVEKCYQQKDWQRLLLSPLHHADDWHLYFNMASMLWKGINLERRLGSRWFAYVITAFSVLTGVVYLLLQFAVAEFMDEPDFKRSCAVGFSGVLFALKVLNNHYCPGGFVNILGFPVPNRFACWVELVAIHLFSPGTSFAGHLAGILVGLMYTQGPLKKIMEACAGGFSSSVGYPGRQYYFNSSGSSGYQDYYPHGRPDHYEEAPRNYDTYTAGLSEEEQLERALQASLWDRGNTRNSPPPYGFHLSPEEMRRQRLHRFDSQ

[3] = target: T2, C12orf60-Uncharacterized protein C12orf60 (human, UniProt Q5U649 1-245)
T2 sequence (looked up): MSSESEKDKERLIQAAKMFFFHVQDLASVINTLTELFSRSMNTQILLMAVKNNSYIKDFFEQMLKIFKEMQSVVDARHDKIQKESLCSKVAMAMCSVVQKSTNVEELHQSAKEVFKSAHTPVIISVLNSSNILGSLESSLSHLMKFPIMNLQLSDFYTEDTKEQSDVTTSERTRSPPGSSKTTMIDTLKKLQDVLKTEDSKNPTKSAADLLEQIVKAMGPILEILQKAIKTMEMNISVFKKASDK

[4] = target: T3, KCTD7-potassium channel tetramerisation domain containing 7 (KCTD7) (human, UniProt Q96MP8 1-289, limits assumed)
T3 sequence (looked up): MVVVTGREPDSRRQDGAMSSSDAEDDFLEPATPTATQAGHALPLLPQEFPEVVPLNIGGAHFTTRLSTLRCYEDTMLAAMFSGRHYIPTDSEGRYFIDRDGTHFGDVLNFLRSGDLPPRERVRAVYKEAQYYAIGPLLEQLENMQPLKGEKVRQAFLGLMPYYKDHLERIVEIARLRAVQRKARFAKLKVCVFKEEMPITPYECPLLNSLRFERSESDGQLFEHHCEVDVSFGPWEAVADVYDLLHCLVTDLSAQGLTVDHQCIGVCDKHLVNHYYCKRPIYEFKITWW

[5] = target: T4, ZBP1-Z-DNA binding protein 1 (ZBP1) (human, UniProt Q9H171 1-429, limits assumed)
T4 sequence (looked up): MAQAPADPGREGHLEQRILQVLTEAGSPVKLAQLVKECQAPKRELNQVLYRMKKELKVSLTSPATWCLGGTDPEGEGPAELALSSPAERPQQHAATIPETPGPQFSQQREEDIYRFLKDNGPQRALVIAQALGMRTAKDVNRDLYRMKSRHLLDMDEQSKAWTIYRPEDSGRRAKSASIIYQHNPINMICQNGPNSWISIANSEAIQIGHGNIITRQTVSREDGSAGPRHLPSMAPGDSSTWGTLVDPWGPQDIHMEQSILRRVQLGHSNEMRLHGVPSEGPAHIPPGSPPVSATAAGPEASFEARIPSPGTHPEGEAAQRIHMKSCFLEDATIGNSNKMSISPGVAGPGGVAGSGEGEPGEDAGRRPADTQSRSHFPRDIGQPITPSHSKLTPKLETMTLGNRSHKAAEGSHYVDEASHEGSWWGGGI

[6] = target: T5, CDK5RAP3-CDK5 regulatory subunit-associated protein 3 (human, UniProt Q96JB5 1-506, limits assumed)
T5 sequence (looked up): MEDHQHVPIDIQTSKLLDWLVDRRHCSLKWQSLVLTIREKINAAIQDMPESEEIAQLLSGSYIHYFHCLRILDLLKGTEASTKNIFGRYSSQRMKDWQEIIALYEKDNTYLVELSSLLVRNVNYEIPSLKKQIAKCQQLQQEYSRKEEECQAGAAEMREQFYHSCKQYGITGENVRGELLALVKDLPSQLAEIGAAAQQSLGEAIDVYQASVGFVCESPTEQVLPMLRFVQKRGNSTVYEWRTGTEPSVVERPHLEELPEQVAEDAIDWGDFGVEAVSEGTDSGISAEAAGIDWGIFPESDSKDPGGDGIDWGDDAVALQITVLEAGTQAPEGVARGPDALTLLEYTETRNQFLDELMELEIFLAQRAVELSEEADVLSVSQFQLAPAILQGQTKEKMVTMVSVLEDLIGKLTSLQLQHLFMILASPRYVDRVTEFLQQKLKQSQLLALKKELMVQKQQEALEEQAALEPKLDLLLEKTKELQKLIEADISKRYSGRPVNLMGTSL

[7] = target: T6, TMED5-transmembrane emp24 protein transport domain containing 5 (TMED5) (human, UniProt Q9Y3A6 28-229, limits assumed)
T6 sequence (looked up): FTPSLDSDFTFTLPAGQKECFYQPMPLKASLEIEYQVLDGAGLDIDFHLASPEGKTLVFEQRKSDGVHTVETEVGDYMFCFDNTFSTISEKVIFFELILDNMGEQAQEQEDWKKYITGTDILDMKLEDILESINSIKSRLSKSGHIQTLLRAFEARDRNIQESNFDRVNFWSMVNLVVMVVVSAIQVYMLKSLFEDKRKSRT

[8] = target: TTC27-Tetratricopeptide repeat protein 27 (human, UniProt Q6P3X3 1-843)

Chain of CTSZ-Cathepsin Z (Q9UBR2 24-303 limits assumed): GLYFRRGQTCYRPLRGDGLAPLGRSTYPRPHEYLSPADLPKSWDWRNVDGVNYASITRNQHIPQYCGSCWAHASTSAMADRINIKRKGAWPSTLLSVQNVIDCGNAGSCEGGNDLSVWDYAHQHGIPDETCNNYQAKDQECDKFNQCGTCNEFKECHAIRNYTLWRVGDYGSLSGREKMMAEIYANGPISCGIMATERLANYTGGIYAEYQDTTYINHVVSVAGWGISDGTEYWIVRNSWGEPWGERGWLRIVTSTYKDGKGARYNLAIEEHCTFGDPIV

- GST Average SNR [1]: 1.28
- GST Average SNR [2]: -0.11
- GST Average SNR [3]: -0.007
- GST Average SNR [4]: 1.09
- GST Average SNR [5]: 0.628
- GST Average SNR [6]: -0.34
- GST Average SNR [7]: -0.425
- GST Average SNR [8]: 0.496
B1: 3× Flag-3×MBT (designed binder)
chain: EEWSSSQPATGEKKECWSWESYLEEQKAITAPVSLFQDSQAVTHNKNGFKLGMKLEGIDPQHPSMYFILTVAEVCGYRLRLHFDGYSECHDFWVNANSPDIHPAGWFEKTGHKLQPPKGYKEEEFSWSQYLRSTRAQAAPKHLFVSQSHSPPPLGFQVGMKLEAVDRMNPSLVCVASVTDVVDSRFLVHFDNWDDTYDYWCDPSSPYIHPVGWCQKQGKPLTPPQDYPDPDNFCWEKYLEETGASAVPTWAFKVRPPHSFLVNMKLEAVDRRNPALIRVASVEDVEDHRIKIHFDGWSHGYDFWIDADHPDIHPAGWCSKTGHPLQPPLGPREPSSASPGG
notes: also called Flag-tagged 3×MBT; 3xFlag-3xMBT; not shown: made by PreScission cleavage of GST-3× Flag-3×MBT
